± gives the uncertainty stated by the source.
B1: library; numbered along this chain (parent)
chain: MEVVDPQQLGMFTEGELMSVGMDTFIHRIDSTEVIYQPRRKRAKLIGKYLMGDLLGEGSYGKVKEVLDSETLCRRAVKILKKKKLRRIPNGEANVKKEIQLLRRLRHKNVIQLVDVLYNEEKQKMYMVMEYCVCGMQEMLDSVPEKRFPVCQAHGYFCQLIDGLEYLHSQGIVHKDIKPGNLLLTTGGTLKISDLGVAEALHPFAADDTCRTSQGSPAFQPPEIANGLDTFSGFKVDIWSAGVTLYNITTGLYPFEGDNIYKLFENIGKGSYAIPGDCGPPLSDLLKGMLEYEPAKRFSIRQIRQHSWFRKKHPPAEAPVPIPPSPDTKDRWRSMTVVPYLEDLHGADEDEDLFDIEDDIIYTQDFTVPGQVPEEEASHNGQRRGLPKAVCMNGTEAAQLSTKSRAEGRAPNPARKACSASSKIRRLSACKQQ

Variants of: B1
Assay: STK11 functional score (HeLa growth suppression), rescaled enrichment; synonymous median = 1, nonsense median = 0 (normalised score)
Settings: with HeLa; variant type: missense
Method: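 Deep mutational scan (TileSeq/POPCode codon randomisation) of full-length codon-optimised STK11 cDNA integrated at a Bxb1 landing pad (AAVS1) in HeLa cells. Restoring functional STK11 suppresses HeLa proliferation. Variant frequencies were measured by NGS before and after about two weeks of growth. The error-corrected enrichment log-ratio was rescaled so that synonymous median = 1 and nonsense median = 0, scores above 1 were compressed, and codon-level and three biological replicate scores were combined; error is the bootstrapped standard error. Scale: synonymous median = 1, nonsense median = 0; below 0.5 = damaging.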

Going from A318Y to R304L, the STK11 functional score falls from 1.63 ± 0.31 to 1.06 ± 0.17.

R304G and N226A are within error of each other in STK11 functional score: 1.24 ± 0.36 for the first, 1.61 ± 0.19 for the second.

M51L and M51S are within error of each other in STK11 functional score: 0.806 ± 0.15 for the first, 0.844 ± 0.24 for the second.

M51Q and E92A are within error of each other in STK11 functional score: 1.66 ± 0.16 for the first, 1.31 ± 0.35 for the second.

First: E92T
Second: D350A
The STK11 functional score of the first is higher: 1.62 ± 0.18 for the first, 0.867 ± 0.29 for the second.

Going from H202G to K81F, the STK11 functional score falls from 1.3 ± 0.16 to 0.987 ± 0.086.

E291T and E291V are within error of each other in STK11 functional score: 1.15 ± 0.44 for the first, 1.28 ± 0.14 for the second.

E291W and R331C are within error of each other in STK11 functional score: 1.35 ± 0.12 for the first, 1.38 ± 0.24 for the second.

Q112F and Q112P are within error of each other in STK11 functional score: 1.11 ± 0.18 for the first, 1.24 ± 0.27 for the second.

R310V and R310T are within error of each other in STK11 functional score: 1.43 ± 0.15 for the first, 0.923 ± 0.65 for the second.

M392N and I177F are within error of each other in STK11 functional score: 0.559 ± 0.12 for the first, 0.54 ± 0.074 for the second.

G91R and G215A are within error of each other in STK11 functional score: 1.03 ± 0.16 for the first, 1.15 ± 0.2 for the second.

Going from G385R to S69M, the STK11 functional score falls from 1.13 ± 0.32 to 0.689 ± 0.1.

Going from S69W to Q432W, the STK11 functional score rises from 0.118 ± 0.084 to 1.59 ± 0.34.

First: V66D
Second: S401H
The STK11 functional score of the first is lower: 0.0679 ± 0.17 for the first, 1.49 ± 0.16 for the second.

S401W and S401G are within error of each other in STK11 functional score: 0.786 ± 0.71 for the first, 0.991 ± 0.7 for the second.

S401F and V128Y are within error of each other in STK11 functional score: 1.49 ± 0.24 for the first, 1.41 ± 0.23 for the second.

A241T and E223W are within error of each other in STK11 functional score: -0.298 ± 0.45 for the first, 0.142 ± 0.1 for the second.

E223C and E223L are within error of each other in STK11 functional score: 1.03 ± 0.53 for the first, 0.529 ± 0.18 for the second.

R426K and A397R are within error of each other in STK11 functional score: 1.49 ± 0.28 for the first, 1.46 ± 0.33 for the second.

A397N and F231R are within error of each other in STK11 functional score: 0.679 ± 0.15 for the first, 1.26 ± 0.52 for the second.

First: F231N
Second: K124S
The STK11 functional score of the first is higher: 1.69 ± 0.13 for the first, 0.355 ± 0.12 for the second.

L105M and L105C are within error of each other in STK11 functional score: 1.18 ± 0.74 for the first, 1.53 ± 0.064 for the second.

Going from K78Y to Y261H, the STK11 functional score rises from -0.374 ± 0.076 to 0.771 ± 0.86.

Compared with Y261W, Y261T is higher in STK11 functional score: 0.609 ± 0.091 for the first, 1.04 ± 0.29 for the second.

First: E349Y
Second: L190G
The STK11 functional score of the first is higher: 0.952 ± 0.56 for the first, 0.073 ± 0.17 for the second.

L190A and I274N are within error of each other in STK11 functional score: 0.537 ± 0.49 for the first, 1.27 ± 0.51 for the second.

Going from C210I to C210L, the STK11 functional score falls from 1.12 ± 0.19 to 0.435 ± 0.12.

First: C210T
Second: V20C
The STK11 functional score of the first is higher: 1.35 ± 0.19 for the first, 0.242 ± 0.13 for the second.

First: A414R
Second: C132F
The STK11 functional score of the first is higher: 1.58 ± 0.31 for the first, 0.255 ± 0.089 for the second.

C132L and A295F are within error of each other in STK11 functional score: 0.813 ± 0.2 for the first, 1.08 ± 0.42 for the second.

A295G and A295C are within error of each other in STK11 functional score: 1.37 ± 0.68 for the first, 1.31 ± 0.43 for the second.

Going from N94M to E407F, the STK11 functional score rises from 0.437 ± 0.077 to 1.26 ± 0.58.

Going from E407L to Y246S, the STK11 functional score falls from 0.778 ± 0.17 to 0.254 ± 0.12.

Y246C and C73Y are within error of each other in STK11 functional score: 0.451 ± 0.12 for the first, 0.412 ± 0.097 for the second.

First: C73W
Second: D330T
The STK11 functional score of the first is lower: 0.426 ± 0.11 for the first, 1.59 ± 0.27 for the second.

Going from H107I to K191G, the STK11 functional score rises from 0.0231 ± 0.17 to 0.729 ± 0.12.

G370A and P314T are within error of each other in STK11 functional score: 1.21 ± 0.58 for the first, 1.54 ± 0.17 for the second.

P314R and P314Y are within error of each other in STK11 functional score: 1.26 ± 0.22 for the first, 0.95 ± 0.15 for the second.

P314C and G346Y are within error of each other in STK11 functional score: 1.53 ± 0.18 for the first, 1.57 ± 0.17 for the second.

L117S and L117T are within error of each other in STK11 functional score: 0.291 ± 0.17 for the first, 0.762 ± 0.38 for the second.

L85C and E138I are within error of each other in STK11 functional score: 1.1 ± 0.34 for the first, 1.48 ± 0.37 for the second.

P324C and S334Y are within error of each other in STK11 functional score: 1.33 ± 0.41 for the first, 1.55 ± 0.17 for the second.

E265S and E265D are within error of each other in STK11 functional score: 1.49 ± 0.32 for the first, 1.31 ± 0.49 for the second.

E265I and P321D are within error of each other in STK11 functional score: 1.42 ± 0.31 for the first, 1.55 ± 0.18 for the second.

P321S and T249R are within error of each other in STK11 functional score: 1.42 ± 0.13 for the first, 1.28 ± 0.31 for the second.

First: V173R
Second: V173F
The STK11 functional score of the first is lower: 0.37 ± 0.16 for the first, 0.953 ± 0.33 for the second.

I360M and I360K are within error of each other in STK11 functional score: 0.866 ± 0.14 for the first, 1.31 ± 0.4 for the second.

E145H and K44A are within error of each other in STK11 functional score: 1.31 ± 0.2 for the first, 1.57 ± 0.37 for the second.

C278N and Q371L are within error of each other in STK11 functional score: 1.12 ± 0.22 for the first, 1.44 ± 0.17 for the second.

Compared with L290I, L290Q is lower in STK11 functional score: 1.06 ± 0.21 for the first, -0.237 ± 0.2 for the second.

A225L and A225I are within error of each other in STK11 functional score: 1.52 ± 0.2 for the first, 1.42 ± 0.13 for the second.

G381Y and G381W are within error of each other in STK11 functional score: 1.37 ± 0.36 for the first, 1.05 ± 0.74 for the second.

H168D and H168Y are within error of each other in STK11 functional score: 0.0708 ± 0.12 for the first, 0.357 ± 0.26 for the second.

D207P and D207M are within error of each other in STK11 functional score: 1.01 ± 0.7 for the first, 1.17 ± 0.12 for the second.

D115R and D115S are within error of each other in STK11 functional score: 1.52 ± 0.27 for the first, 1.6 ± 0.15 for the second.

V4G and V4E are within error of each other in STK11 functional score: 1.03 ± 0.13 for the first, 1.09 ± 0.6 for the second.

Compared with E121L, L245Q is lower in STK11 functional score: 1.43 ± 0.23 for the first, 0.383 ± 0.19 for the second.

L245Y and L245D are within error of each other in STK11 functional score: -0.0275 ± 0.097 for the first, -0.177 ± 0.17 for the second.

A205Q and A205E are within error of each other in STK11 functional score: 1.33 ± 0.29 for the first, 1.64 ± 0.21 for the second.

A377Q and A377V are within error of each other in STK11 functional score: 1.59 ± 0.23 for the first, 1.31 ± 0.34 for the second.

Compared with M335F, M335L is lower in STK11 functional score: 1.35 ± 0.13 for the first, 1.03 ± 0.18 for the second.

F366A and S271Y are within error of each other in STK11 functional score: 0.753 ± 0.65 for the first, -0.251 ± 0.55 for the second.

S271V and R87K are within error of each other in STK11 functional score: 0.986 ± 0.14 for the first, 0.613 ± 0.69 for the second.

D53C and W239Y are within error of each other in STK11 functional score: 1.1 ± 0.3 for the first, 0.934 ± 0.097 for the second.

First: W239S
Second: R86E
The STK11 functional score of the first is lower: 0.00373 ± 0.1 for the first, 1.6 ± 0.14 for the second.

A200I and V34I are within error of each other in STK11 functional score: 1.31 ± 0.23 for the first, 1.1 ± 0.34 for the second.

M11G and K62W are within error of each other in STK11 functional score: 1.4 ± 0.54 for the first, 1.38 ± 0.43 for the second.

D284H and V337P are within error of each other in STK11 functional score: 1.14 ± 0.31 for the first, 1.58 ± 0.14 for the second.

S404K and S404A are within error of each other in STK11 functional score: 1.56 ± 0.26 for the first, 1.31 ± 0.34 for the second.

S404D and S404F are within error of each other in STK11 functional score: 1.18 ± 0.3 for the first, 0.794 ± 0.61 for the second.

G251T and D358Q are within error of each other in STK11 functional score: 1.21 ± 0.25 for the first, 1.49 ± 0.3 for the second.

T402A and S283N are within error of each other in STK11 functional score: 1.42 ± 0.28 for the first, 1.4 ± 0.29 for the second.

Going from G56L to K175G, the STK11 functional score rises from 0.359 ± 0.094 to 0.847 ± 0.18.

Going from S59E to K122Q, the STK11 functional score falls from 1.42 ± 0.18 to 0.235 ± 0.48.

K122S and E357R are within error of each other in STK11 functional score: 1.65 ± 0.4 for the first, 1.36 ± 0.17 for the second.

D141G and D365E are within error of each other in STK11 functional score: 1.2 ± 0.36 for the first, 0.893 ± 0.49 for the second.

L50W and P319D are within error of each other in STK11 functional score: 0.44 ± 0.99 for the first, 1.52 ± 0.16 for the second.

Going from P179L to Q382V, the STK11 functional score rises from 0.376 ± 0.075 to 1.12 ± 0.25.

M289A and M289F are within error of each other in STK11 functional score: 0.107 ± 0.21 for the first, -0.0683 ± 0.074 for the second.

A417I and A417G are within error of each other in STK11 functional score: 1.51 ± 0.17 for the first, 1.47 ± 0.26 for the second.

Going from P326Y to K235P, the STK11 functional score rises from 0.263 ± 0.093 to 1.65 ± 0.36.

S378G and S378M are within error of each other in STK11 functional score: 0.914 ± 0.31 for the first, 1.11 ± 0.13 for the second.

In the case of S378F, the STK11 functional score is reported as 1.41 ± 0.43.

— the supplement of paper PMC12338614
